Test results from patent US6531306.
Where two headings read alike, the source gives them in different places.

Assays:
[1] = molecular target: T1, Active DNA-dependent ATPase A Domain (ADAAD, 82 kDa) (Bos taurus) (UniProt Q9TTA5); conditions: ATP hydrolysis
T1 sequence: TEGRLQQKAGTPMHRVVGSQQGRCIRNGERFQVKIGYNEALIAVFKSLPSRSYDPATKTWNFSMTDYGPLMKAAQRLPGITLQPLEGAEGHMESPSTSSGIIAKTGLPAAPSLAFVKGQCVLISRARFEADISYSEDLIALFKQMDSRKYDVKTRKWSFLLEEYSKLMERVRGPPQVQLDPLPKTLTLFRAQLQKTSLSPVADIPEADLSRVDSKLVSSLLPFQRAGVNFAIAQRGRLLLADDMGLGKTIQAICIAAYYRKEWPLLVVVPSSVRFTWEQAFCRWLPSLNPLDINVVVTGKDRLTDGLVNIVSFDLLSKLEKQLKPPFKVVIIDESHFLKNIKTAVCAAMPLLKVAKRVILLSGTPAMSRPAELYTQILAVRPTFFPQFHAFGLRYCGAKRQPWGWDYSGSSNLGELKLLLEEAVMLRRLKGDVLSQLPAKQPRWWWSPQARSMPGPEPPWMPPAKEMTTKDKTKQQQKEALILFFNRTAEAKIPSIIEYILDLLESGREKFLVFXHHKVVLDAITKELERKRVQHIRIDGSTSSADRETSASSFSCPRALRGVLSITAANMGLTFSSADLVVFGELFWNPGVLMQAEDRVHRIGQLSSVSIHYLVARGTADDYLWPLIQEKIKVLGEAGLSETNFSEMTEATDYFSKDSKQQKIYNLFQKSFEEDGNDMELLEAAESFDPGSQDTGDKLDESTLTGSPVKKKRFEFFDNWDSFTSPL

[2] = molecular target: T1, Active DNA-dependent ATPase A Domain (ADAAD, 82 kDa) (Bos taurus); conditions: apparent binding constant from ATP hydrolysis kinetics
[3] = molecular target: T1, Active DNA-dependent ATPase A Domain (ADAAD, 82 kDa) (Bos taurus); conditions: ATP hydrolysis; remark: listed apart in the source
[4] = system: MAbs specific for DNA-dependent ATPase A
[5] = molecular target: T1, Active DNA-dependent ATPase A Domain (ADAAD, 82 kDa) (Bos taurus); conditions: blunt-ended stem-loop, dG 18.4; ATP hydrolysis; SEQ:1 inferred
[6] = molecular target: T1, Active DNA-dependent ATPase A Domain (ADAAD, 82 kDa) (Bos taurus); conditions: ATP hydrolysis; remark: listed apart in the source

Substance: Table 16 structure 8 blunt-ended duplex, 10 base mismatch
- activity (relative activity) [1]: 83.7

Substance: stem-loop DNA, 9-base loop
- Ka [2]: 8e+07 M⁻¹

Substance: Table 16 structure 7 blunt-ended duplex, 4 base mismatch
- activity (relative activity) [3]: 66.5

Substance: DNA-dependent ATPase A
- DNA-dependent ATP hydrolysis in vitro [4]: none of the MAbs demonstrate inhibition of DNA-dependent ATP hydrolysis in vitro

Substance: GCGCAATTGCGCTCGACGATTTTTTAGCGCAATTGCGC [stem-loop DNA, 12-base loop]
- activity (relative activity) [5]: 90

Substance: stem-loop DNA, 3-base loop
- Ka [2]: 2e+07 M⁻¹

Substance: Table 16 structure 6 AT-rich blunt-ended duplex
- activity (relative activity) [6]: 49

Substance: stem-loop DNA, 6-base loop
- Ka [2]: 5e+07 M⁻¹
